Data published in IntAct's records for PubMed 22949673.

B1: 5-cytosine rRNA methyltransferase NSUN4 (Homo sapiens), Q96CB9-1 (parent)
chain: MAALTLRGVRELLKRVDLATVPRRHRYKKKWAATEPKFPAVRLALQNFDMTYSVQFGDLWPSIRVSLLSEQKYGALVNNFAAWDHVSAKLEQLSAKDFVNEAISHWELQSEGGQSAAPSPASWACSPNLRCFTFDRGDISRFPPARPGSLGVMEYYLMDAASLLPVLALGLQPGDIVLDLCAAPGGKTLALLQTGCCRNLAANDLSPSRIARLQKILHSYVPEEIRDGNQVRVTSWDGRKWGELEGDTYDRVLVDVPCTTDRHSLHEEENNIFKRSRKKERQILPVLQVQLLAAGLLATKPGGHVVYSTCSLSHLQNEYVVQGAIELLANQYSIQVQVEDLTHFRRVFMDTFCFFSSCQVGELVIPNLMANFGPMYFCKMRRLT
partner: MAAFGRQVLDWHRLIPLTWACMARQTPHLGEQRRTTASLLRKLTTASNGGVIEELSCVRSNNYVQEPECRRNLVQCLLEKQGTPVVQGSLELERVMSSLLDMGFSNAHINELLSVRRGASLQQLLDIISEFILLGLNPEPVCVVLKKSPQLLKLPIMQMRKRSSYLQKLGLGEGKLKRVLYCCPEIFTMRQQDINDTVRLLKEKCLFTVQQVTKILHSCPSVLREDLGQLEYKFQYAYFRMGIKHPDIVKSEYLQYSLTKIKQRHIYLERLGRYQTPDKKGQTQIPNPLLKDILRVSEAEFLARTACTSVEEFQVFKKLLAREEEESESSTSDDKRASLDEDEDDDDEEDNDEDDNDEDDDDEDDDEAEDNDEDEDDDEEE

Variants of: B1
Conditions: with mtef4_human MTERF4, Q7Z6M4

Row | effect of a mutation on the interaction | Variant
1 | disrupting interaction strength | V65R;R136A;I139R;R141A
